Test results from the supplement of paper PMC7125110.
± gives the standard error. This sample holds only a part of the variants without activity.

B1: glmS ribozyme (parent)
chain: AUAAAAGCGCCAGAACUACAGAAAUGUAGUUGACGAGGAGGAGGUUUAUCGAAUUUUCGGCGGAUGCCUCCAAA

Tests used:
Conditions in all cases: with glucosamine-6-phosphate
glucosamine-6-phosphate [1] = variants of: B1; assay: self-cleavage kobs at 160 uM GlcN6P; higher = faster cleavage; RNA array
Summary of the method: (§1)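 Tiles bearing barcoded ribozyme variants, transcribed in situ by E. coli RNA polymerase on sequenced MiSeq chips, were imaged over ~14 h at 37 °C using a hybridised Cy3 probe. Glucosamine-6-phosphate was supplied at 40 μM to 10 mM in HEPES/KCl/Mg(OAc)2 buffer. kobs came from one- or two-exponential decay fits to normalised per-tile medians, and weighted Michaelis–Menten fits then provided kcat and KM.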

glucosamine-6-phosphate [2] = variants of: B1; assay: self-cleavage kobs at 640 uM GlcN6P; higher = faster cleavage; RNA array
Summary of the method: as §1

glucosamine-6-phosphate [3] = variants of: B1; assay: self-cleavage kobs at 2500 uM GlcN6P; higher = faster cleavage; RNA array
Summary of the method: as §1

glucosamine-6-phosphate [4] = variants of: B1; assay: self-cleavage kobs at 10000 uM GlcN6P; higher = faster cleavage; RNA array
Summary of the method: as §1

Row | Variant | self-cleavage kobs at 160 uM GlcN6P (glucosamine-6-phosphate [1]) [s⁻¹] | self-cleavage kobs at 640 uM GlcN6P (glucosamine-6-phosphate [2]) [s⁻¹] | self-cleavage kobs at 2500 uM GlcN6P (glucosamine-6-phosphate [3]) [s⁻¹] | self-cleavage kobs at 10000 uM GlcN6P (glucosamine-6-phosphate [4]) [s⁻¹]
1 | G9C A48G | < 1e-05 | < 1e-05 | < 1e-05 | < 1e-05
2 | C11G A33U U49C C50U U65C | < 1e-05 | – | – | –
3 | A15U U55G A64G | 0.000233 ± 5.2e-05 | – | – | –
4 | G32A A42G U56A C70A | < 1e-05 | – | – | –
5 | U46G U55G G60C | < 1e-05 | – | < 1e-05 | –
6 | C8G G51U A64U | < 1e-05 | < 1e-05 | – | –
7 | A12U C34A | < 1e-05 | < 1e-05 | – | –
8 | G32U G41U G60A | < 1e-05 | – | < 1e-05 | –
9 | A15C C16A C67U | 4.39e-05 ± 2.1e-05 | 0.000115 ± 2.9e-05 | 0.000111 ± 4e-05 | –
10 | G60A C61U G63A | < 1e-05 | – | < 1e-05 | –
11 | G41U U69G | < 1e-05 | < 1e-05 | < 1e-05 | < 1e-05
12 | G38U G60C | < 1e-05 | < 1e-05 | – | –
13 | C8U A15U | < 1e-05 | < 1e-05 | < 1e-05 | –
14 | A15U A42U G51A C67U | < 1e-05 | < 1e-05 | – | < 1e-05
15 | C58G U69A | 5.46e-05 ± 2.7e-05 | 0.000406 ± 9.6e-05 | – | –
16 | A33C G51U | < 1e-05 | < 1e-05 | – | < 1e-05
17 | U57C G62A | < 1e-05 | – | – | < 1e-05
18 | U49C A53C | < 1e-05 | < 1e-05 | < 1e-05 | –
19 | C16A G59U C68G | 0.000107 ± 3e-05 | – | – | –
20 | A15G U46G G66A C68U | 6.94e-05 ± 1.7e-05 | 0.000307 ± 0.00014 | 0.00078 ± 0.00029 | –
21 | C11U U56G | 4.58e-05 ± 1.6e-05 | 0.000297 ± 5.6e-05 | 0.000254 ± 9.7e-05 | 0.00158 ± 0.00036
22 | G60U C68U | < 1e-05 | – | – | < 1e-05
23 | A12G A14C G60C | < 1e-05 | < 1e-05 | – | –
24 | C50G G62U G66C C70A | 7.6e-05 ± 1.6e-05 | 0.000118 ± 2.5e-05 | – | –
25 | A42C A53C | < 1e-05 | < 1e-05 | – | –
26 | C50U U56C C68U C70U | < 1e-05 | – | – | –
27 | G35A G41C | < 1e-05 | < 1e-05 | – | –
28 | C8A U31G G62A | < 1e-05 | – | < 1e-05 | –

Row | Variant | self-cleavage kobs at 160 uM GlcN6P (glucosamine-6-phosphate [1]) [s⁻¹] | self-cleavage kobs at 640 uM GlcN6P (glucosamine-6-phosphate [2]) [s⁻¹] | self-cleavage kobs at 2500 uM GlcN6P (glucosamine-6-phosphate [3]) [s⁻¹] | self-cleavage kobs at 10000 uM GlcN6P (glucosamine-6-phosphate [4]) [s⁻¹]
29 | A14G C61G | < 1e-05 | – | – | –
30 | A36U U65C | < 1e-05 | – | – | –
31 | A6C A12U G41A | < 1e-05 | < 1e-05 | < 1e-05 | –
32 | C10U C16A U65A | < 1e-05 | < 1e-05 | < 1e-05 | < 1e-05
33 | U31C G62U G66C | < 1e-05 | – | – | –
34 | A12C U31G A42C U69G | 0.000164 ± 3.1e-05 | – | 0.00194 ± 0.00028 | –
35 | G29U C34G G38U G44U | < 1e-05 | < 1e-05 | – | –
36 | A6U U47A A53U | < 1e-05 | – | – | –
37 | U30A A39C U55C | 4.87e-05 ± 1.3e-05 | 0.00025 ± 4.5e-05 | 0.000864 ± 0.00021 | –
38 | C10G G29A G62U C71U | < 1e-05 | < 1e-05 | < 1e-05 | –
39 | A42C U47C | < 1e-05 | < 1e-05 | < 1e-05 | –
40 | G13C G29U G37C C71U | < 1e-05 | – | – | –
41 | A6G A14U A48G G63U | < 1e-05 | < 1e-05 | < 1e-05 | –
42 | C8U G32C U47A | < 1e-05 | < 1e-05 | < 1e-05 | –
43 | G38A G41A C71A | < 1e-05 | – | < 1e-05 | –
44 | A42C G62C G63U U69A | < 1e-05 | – | < 1e-05 | –
45 | G32U G35A A42C | < 1e-05 | < 1e-05 | < 1e-05 | –
46 | G29U A48C G59A | < 1e-05 | < 1e-05 | < 1e-05 | < 1e-05
47 | U55A C58U | < 1e-05 | – | – | 7.74e-05 ± 6.6e-06
48 | C8A G63A | < 1e-05 | – | < 1e-05 | < 1e-05
49 | A39G C50G | 0.000247 ± 0.00011 | – | – | –
50 | C8U G66U | < 1e-05 | < 1e-05 | – | < 1e-05
51 | G38U G43A C58G U65C | < 1e-05 | – | – | –
52 | G51U A53U C58A C70A | 8.95e-05 ± 1.6e-05 | 7.01e-05 ± 2.6e-05 | 5.47e-05 ± 2.1e-05 | –
53 | C11U U55G C71A | 3.73e-05 ± 1.5e-05 | 8.41e-05 ± 1.7e-05 | 0.000143 ± 5.3e-05 | –
54 | C11G A33C G35C G62A | < 1e-05 | < 1e-05 | – | –
55 | C10U A39U A64U C70G | < 1e-05 | < 1e-05 | – | –
